Test results taken from PMC10016618 (Nature cell biology, 2021).
Where two headings read alike, the source gives them in different places.

B1: GST-Kif7-CC-GFP (domain or fragment, human, UniProt Q2M1P5 460-600, looked up)
chain: PDSGIESASVEDQAAQGAGGRKEDEGAQQLLTLQNQVARLEEENRDFLAALEDAMEQYKLQSDRLREQQEEMVELRLRLELVRPGWGGPRLLNGLPPGSFVPRPHTAPLGGAHAHVLGMVPPACLPGDEVGSEQRGEQVTN
B3: Gli2-ZF (domain or fragment, human, UniProt P10070 418-604, looked up)
chain: KEDLDRDDCKQEAEVVIYETNCHWEDCTKEYDTQEQLVHHINNEHIHGEKKEFVCRWQACTREQKPFKAQYMLVVHMRRHTGEKPHKCTFEGCSKAYSRLENLKTHLRSHTGEKPYVCEHEGCNKAFSNASDRAKHQNRTHSNEKPYICKIPGCTKRYTDPSSLRKHVKTVHGPDAHVTKKQRNDVH
B6: Gli2-ZF-GFP (domain or fragment, human, UniProt P10070 418-604, looked up)
chain: KEDLDRDDCKQEAEVVIYETNCHWEDCTKEYDTQEQLVHHINNEHIHGEKKEFVCRWQACTREQKPFKAQYMLVVHMRRHTGEKPHKCTFEGCSKAYSRLENLKTHLRSHTGEKPYVCEHEGCNKAFSNASDRAKHQNRTHSNEKPYICKIPGCTKRYTDPSSLRKHVKTVHGPDAHVTKKQRNDVH
B7: Kif7-DM(E502A)-GFP (domain or fragment, human, UniProt Q2M1P5 1-543, looked up)
chain: MGLEAQRLPGAEEAPVRVALRVRPLLPKELLHGHQSCLQVEPGLGRVTLGRDRHFGFHVVLAEDAGQEAVYQACVQPLLEAFFEGFNATVFAYGQTGSGKTYTMGEASVASLLEDEQGIVPRAMAEAFKLIDENDLLDCLVHVSYLEVYKEEFRDLLEVGTASRDIQLREDERGNVVLCGVKEVDVEGLDEVLSLLEMGNAARHTGATHLNHLSSRSHTVFTVTLEQRGRAPSRLPRPAPGQLLVSKFHFVDLAGSERVLKTGSTGERLKESIQINSSLLALGNVISALGDPQRRGSHIPYRDSKITRILKDSLGGNAKTVMIACVSPSSSDFDETLNTLNYASRAQNIRNRATVNWRPEAERPPEETASGARGPPRHRSETRIIHRGRRAPGPATASAAAAMRLGAECARYRACTDAAYSLLRELQAEPGLPGAAARKVRDWLCAVEGERSALSSASGPDSGIESASVEDQAAQGAGGRKEDEGAQQLLTLQNQVARLEEANRDFLAALEDAMEQYKLQSDRLREQQEEMVELRLRLELVRP

Tests used:
[1] = target: B3; test: BLI
[2] = target: B6; test: BLI
[3] = target: T1, Kif7-DM (1-543aa) (human, UniProt Q2M1P5 1-543); test: BLI
T1 sequence (looked up): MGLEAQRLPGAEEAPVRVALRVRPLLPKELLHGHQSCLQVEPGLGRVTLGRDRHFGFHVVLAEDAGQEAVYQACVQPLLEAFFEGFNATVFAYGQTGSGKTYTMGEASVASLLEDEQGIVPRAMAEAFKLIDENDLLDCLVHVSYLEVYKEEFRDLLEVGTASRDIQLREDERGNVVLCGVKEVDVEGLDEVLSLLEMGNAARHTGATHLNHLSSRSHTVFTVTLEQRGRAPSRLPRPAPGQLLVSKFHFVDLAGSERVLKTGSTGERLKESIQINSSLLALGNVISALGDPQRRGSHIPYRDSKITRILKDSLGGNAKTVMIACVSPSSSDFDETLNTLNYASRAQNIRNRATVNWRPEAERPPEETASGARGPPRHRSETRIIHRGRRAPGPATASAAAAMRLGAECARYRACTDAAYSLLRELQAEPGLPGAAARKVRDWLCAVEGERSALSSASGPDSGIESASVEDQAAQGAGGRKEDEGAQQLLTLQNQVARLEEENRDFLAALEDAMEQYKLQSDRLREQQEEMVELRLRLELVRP

[4] = target: B7; test: BLI
[5] = target: T2, Kif7-DM-GFP (1-543aa) (human, UniProt Q2M1P5 1-543); test: BLI
T2 sequence (looked up): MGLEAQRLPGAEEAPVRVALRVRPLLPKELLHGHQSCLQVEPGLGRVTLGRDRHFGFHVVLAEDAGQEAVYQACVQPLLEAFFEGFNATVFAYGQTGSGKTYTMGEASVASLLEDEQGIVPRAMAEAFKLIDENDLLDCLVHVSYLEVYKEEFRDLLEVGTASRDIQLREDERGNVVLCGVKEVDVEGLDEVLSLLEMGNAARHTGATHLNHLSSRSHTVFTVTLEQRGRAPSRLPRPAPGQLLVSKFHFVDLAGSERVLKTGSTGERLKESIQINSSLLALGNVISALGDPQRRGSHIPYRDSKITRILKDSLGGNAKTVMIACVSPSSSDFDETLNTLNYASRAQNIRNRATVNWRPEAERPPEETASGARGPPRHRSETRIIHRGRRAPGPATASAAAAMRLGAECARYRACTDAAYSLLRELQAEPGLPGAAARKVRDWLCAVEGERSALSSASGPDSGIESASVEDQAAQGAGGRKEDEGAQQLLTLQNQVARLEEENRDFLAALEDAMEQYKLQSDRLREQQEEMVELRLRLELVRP

[6] = target: B3; test: BLI; remark: listed apart in the source
[7] = target: the molecule itself; test: SEC
[8] = target: B1; test: SEC
[9] = target: T2, Kif7-DM-GFP (1-543aa); test: SEC

Binder: B1
- Kd [1]: 65 ± 22 nM
- Kd [2]: 57 ± 9 nM

B2: GST-Kif7-CC D505A (domain or fragment, human, UniProt Q2M1P5 460-600, looked up)
chain: PDSGIESASVEDQAAQGAGGRKEDEGAQQLLTLQNQVARLEEENRAFLAALEDAMEQYKLQSDRLREQQEEMVELRLRLELVRPGWGGPRLLNGLPPGSFVPRPHTAPLGGAHAHVLGMVPPACLPGDEVGSEQRGEQVTN
- binding result [1]: binds

Binder: B3
- Kd [3]: 99 ± 25 nM
- Kd [4]: 414 ± 103 nM
- Kd [5]: 138 ± 41 nM

B4: Kif7M-Kif27CC-GFP (other, human, UniProt Q2M1P5 1-462, looked up)
chain: MGLEAQRLPGAEEAPVRVALRVRPLLPKELLHGHQSCLQVEPGLGRVTLGRDRHFGFHVVLAEDAGQEAVYQACVQPLLEAFFEGFNATVFAYGQTGSGKTYTMGEASVASLLEDEQGIVPRAMAEAFKLIDENDLLDCLVHVSYLEVYKEEFRDLLEVGTASRDIQLREDERGNVVLCGVKEVDVEGLDEVLSLLEMGNAARHTGATHLNHLSSRSHTVFTVTLEQRGRAPSRLPRPAPGQLLVSKFHFVDLAGSERVLKTGSTGERLKESIQINSSLLALGNVISALGDPQRRGSHIPYRDSKITRILKDSLGGNAKTVMIACVSPSSSDFDETLNTLNYASRAQNIRNRATVNWRPEAERPPEETASGARGPPRHRSETRIIHRGRRAPGPATASAAAAMRLGAECARYRACTDAAYSLLRELQAEPGLPGAAARKVRDWLCAVEGERSALSSASGPDSVLQLKRELKKCQCVLAADEVVFNQKELEVKELKNQVQMMVQENKGHAVSLKEAQKVNRLQNEKIIEQQLLVDQLSEELTKLNLSVTSSAKENCGDG
- Kd [6]: 397 ± 88 nM

B5: Kif27M-Kif7CC-GFP (other, human, UniProt Q86VH2 1-475, looked up)
chain: MEEIPVKVAVRIRPLLCKEALHNHQVCVRVIPNSQQVIIGRDRVFTFDFVFGKNSTQDEVYNTCIKPLVLSLIEGYNATVFAYGQTGSGKTYTIGGGHIASVVEGQKGIIPRAIQEIFQSISEHPSIDFNVKVSYIEVYKEDLRDLLELETSMKDLHIREDEKGNTVIVGAKECHVESAGEVMSLLEMGNAARHTGTTQMNEHSSRSHAIFTISICQVHKNMEAAEDGSWYSPRHIVSKFHFVDLAGSERVTKTGNTGERFKESIQINSGLLALGNVISALGDPRRKSSHIPYRDAKITRLLKDSLGGSAKTVMITCVSPSSSNFDESLNSLKYANRARNIRNKPTVNFSPESDRIDEMEFEIKLLREALQSQQAGVSQTTQINREGSPDTNRIHSLEEQVAQLQGECLGYQCCVEEAFTFLVDLKDTVRLNEKQQHKLQEWFNMIQEVRKAVLTSFRGIGGTASLEEGPQHVTVPDSGIESASVEDQAAQGAGGRKEDEGAQQLLTLQNQVARLEEENRDFLAALEDAMEQYKLQSDRLREQQEEMVELRLRLELVRPGWGGPRLLNGLPPGSFVPRPHTAPLGGAHAHVLGMVPPACLPGDEVGSEQRGEQVTN
- Kd [6]: 217 ± 70 nM
- stoichiometry N [7]: 2

Binder: B6
- stoichiometry N [8]: 0.5 Gli2-ZF-GFP per Kif7-CC-GFP chain (one per dimer)
- stoichiometry N [9]: 1 Gli2-ZF per Kif7-DM chain (two per dimer)

Binder: B7
- stoichiometry N [7]: 2

B8: GST-Kif7-CC (460-600aa) (domain or fragment, human, UniProt Q2M1P5 460-600, looked up)
chain: PDSGIESASVEDQAAQGAGGRKEDEGAQQLLTLQNQVARLEEENRDFLAALEDAMEQYKLQSDRLREQQEEMVELRLRLELVRPGWGGPRLLNGLPPGSFVPRPHTAPLGGAHAHVLGMVPPACLPGDEVGSEQRGEQVTN
- Kd [1]: 48 ± 5 nM

B9: GST-Kif7-SCC (481-543aa) (domain or fragment, human, UniProt Q2M1P5 481-543, looked up)
chain: KEDEGAQQLLTLQNQVARLEEENRDFLAALEDAMEQYKLQSDRLREQQEEMVELRLRLELVRP
- Kd [1]: 69 ± 20 nM
